{"source": "patent US10323078B2", "about": "“Isolated peptides and fragments thereof from fibrinogen for use as drugs, particularly in skin inflammatory diseases” (Universite Paris Descartes, priority 2015, dated 2019)", "key": {"[1]": {"system": "Pfg", "assay": "Binding of biotinylated Pfg to immobilized fibrinogen (polystyrene plate)", "set-up": "species or system Propionibacterium acnes", "settings": "various quantities of fibrinogen immobilized; biotinylated Pfg 0.1 μg/ml, 2 h at 23° C.", "experimental": "FIG. 5: Binding of P. acnes surface proteins to fibrinogen. (A) Various quantities of human fibrinogen (hFg) and bovine fibrinogen (bFg) were immobilized onto a 96-well polystyrene plate at 4° C. for 18 h and incubated with biotinylated Pfg at 0.1 μg/ml for 2 h at 23° C. Bovine serum albumin (BSA) was used as negative control. Bound material was detected by using the HRP-streptavidin conjugate. Peroxidase activity was measured by using the ABTS substrate at 405 nm. Proteins (10 μg per lane) were separated by 10% SDS-PAGE and detected by (B) Commassie blue staining, and transferred to nitrocellulose membrane and incubated with (C) HRP-streptavidine alone, and (D) biotinylated Pfg (0.1 μg/ml). Lanes 1: molecular weight standards. Lane 2: BSA. […]\nTo characterize the interaction between P. acnes and ligands, we used biotinylated molecules in quantitative and qualitative assays. […] For quantitative analysis, unlabeled protein were diluted into 50 mM carbonate-bicarbonate, pH 9.6 buffer to yield a protein concentration ranging from 0.01 to 50 μg/ml, and then immobilized to 96-well polystyrene plates at 4° C. overnight. […] After washing, bound peroxidase was detected using the chromogenic peroxidase substrate ABTS. […] Binding activity was detected by incubating the membranes with 20 ml of PBT containing biotinylated proteins (0.1 μg/ml) for 2 h at room temperature followed by three washes with PBT. […]"}, "[2]": {"system": "NHDK cells", "assay": "IL-8 production by P. acnes-stimulated NHDK (ELISA)", "type": "cell-based, human", "settings": "0.87 to 7 μM", "experimental": "(§1) For experiences of stimulation with P. acnes, cells were incubated with the P. acnes suspension adjusted at the appropriate concentration, pre-treated for 1 h at 37° C. or not with fibrinogen recombinant peptides Fg1 and Fg2 at the concentrations 0.87, 1.75, 3.5 or 7 μM for the desired period of time at 37° C. in 5% CO2.\n(§2) Human IL-1ß, IL-8, IL-12, hBD-2, and TNF-α protein concentration was measured in the supernatants of stimulated cells using various ELISA Set kits (Ready-Set-Go kit from eBioscience for acne experiments, and for psoriasis experiments the Duo set IL-8 kit from R&D Systems and the BD-2 Human Development (hBD-2) from Peprotech) according to the manufacturer's instructions. We used serial dilutions of recombinant human IL-1ß, IL-8, IL-12 and TNF-α for standard curve. The optical density was determined at 450 nm at a wavelength correction of 540 nm.\n(§3) To assess the efficacy of Fg1 recombinant peptide, the production of O2^∘− and H2O2 by HaCaT cells NHDK, THP-1, MRC5 and HDF stimulated by pretreated P. acnes strains 6919, RON and PIE was measured. The amount of ROS produced was compared to that produced by the stimulated cells with untreated bacteria. Production baseline was obtained by measuring ROS on unstimulated cells. The production of IL-1ß, IL-8, IL-12 and TNF-α was also measured in all conditions cited above. The measurement of the production of ROS is performed by spectrofluorimetry in the presence of specific fluorochromes directly on the monolayer cell. Measurement of cytokine production was performed in parallel on the cell culture supernatant.\n(§4) Two sets of experiments were implemented: 1) The cells were stimulated (18 h at 37° C.) by P. acnes strains previously pretreated with Fg1 and Fg2 peptides at the final concentrations ranging from 0.87 to 7 μM for 1 h at 37° C.; and 2) The cells were pretreated first with Fg1 and Fg2 peptides at the final concentrations ranging from 0.87 to 7 μM for 24 h at 37° C. and stimulated (18 h at 37° C.) by P. acnes strains."}, "[3]": {"system": "MRC5 cells", "assay": "TNF-α production by P. acnes-stimulated MRC5 (ELISA)", "type": "cell-based, human", "settings": "0.87 to 7 μM", "experimental": "as §1, §2, §3, §4"}, "[4]": {"settings": "P. acnes 6919, set I, bacteria first pretreated"}, "[5]": {"settings": "P. acnes 6919, set II, cells first pretreated"}, "[6]": {"settings": "P. acnes PIE, set I, bacteria first pretreated"}, "[7]": {"settings": "P. acnes PIE, set II, cells first pretreated"}, "[8]": {"settings": "P. acnes RON, set I, bacteria first pretreated"}, "[9]": {"settings": "P. acnes RON, set II, cells first pretreated"}}, "data": [{"molecule": "human fibrinogen: purified commercial human fibrinogen (Sigma), glycoprotein hexamer of Aα, Bß and γ chains", "values": [{"measurement": "Binding of biotinylated Pfg to immobilized fibrinogen", "setting": "[1]", "value": "dose-dependent with a higher affinity for hFg"}]}, {"molecule": "MKRMVSWSFHKLKTMKHLLLLLLCVFLVKSQGVNDNEEGFFSARGHRPLDKKREEAPSLRPAPPPISGGGYRARPAKAAATQKKVERKAPDAGGCLHADPDLGVLC (protein, GST fusion; fragment Fg1, fragment of Bß chain of human fibrinogen having 106 amino acids; recombinant GST-fused peptide expressed in E. coli) MKRMVSWSFHKLKTMKHLLLLLLCVFLVKSQGVNDNEEGFFSARGHRPLDKKREEAPSLRPAPPPISGGGRARPAKAAATQKKVERKAPDAGGCLHADPDLGVLCMKRMVSWSFHKLKTMKHLLLLLLCVFLVKSQGVNDNEEGFFSARGHRPLDKKREEAPSLRPAPPPISGGGYRARPAKAAATQKKVERKAPDAGGCLHADPDLGVLC", "values": [{"measurement": "Inhibition of Interleukine 8 (IL-8) production", "setting": "[2]; [4]", "value": "pos"}, {"measurement": "Inhibition of Interleukine 8 (IL-8) production", "setting": "[2]; [5]", "value": "pos"}, {"measurement": "Inhibition of Interleukine 8 (IL-8) production", "setting": "[2]; [6]", "value": "pos"}, {"measurement": "Inhibition of Interleukine 8 (IL-8) production", "setting": "[2]; [7]", "value": "pos"}, {"measurement": "Inhibition of Interleukine 8 (IL-8) production", "setting": "[2]; [8]", "value": "pos"}, {"measurement": "Inhibition of Interleukine 8 (IL-8) production", "setting": "[2]; [9]", "value": "pos"}, {"measurement": "Inhibition of Interleukine TNF alpha (TNF-α) production", "setting": "[3]; [4]", "value": "pos"}, {"measurement": "Inhibition of Interleukine TNF alpha (TNF-α) production", "setting": "[3]; [5]", "value": "pos"}, {"measurement": "Inhibition of Interleukine TNF alpha (TNF-α) production", "setting": "[3]; [6]", "value": "pos"}, {"measurement": "Inhibition of Interleukine TNF alpha (TNF-α) production", "setting": "[3]; [7]", "value": "pos"}, {"measurement": "Inhibition of Interleukine TNF alpha (TNF-α) production", "setting": "[3]; [8]", "value": "pos"}, {"measurement": "Inhibition of Interleukine TNF alpha (TNF-α) production", "setting": "[3]; [9]", "value": "pos"}]}]}
